Measured values: patent publication US20230287082A1 (published 2023)
Positions count from the first letter of the chain named.

B1: ΔB7-H6_S3#24-SEED-PGLALA (bispecific antibody, part only; not given: SEED Fc chains and hu225 Fab, part only)
chain, part: DLKVEMMAGGTQITPLNDNVTIFCNIFYSQPLNITIMGITWFWKSLTFDKEVKVFEFYGDHQEAFRPGAIVSPWRLKSGDASLRLPGIQLEEAGEYRCEVVVTPYKAQGTVQLEVVASPAS
B2: ΔB7-H6_S3#19-SEED-PGLALA (bispecific antibody, part only; not given: SEED Fc chains and hu225 Fab, part only)
chain, part: B1 chain, part with I36Q, Y58W
B3: ΔB7-H6_S3#11-SEED-PGLALA (bispecific antibody, part only; not given: SEED Fc chains and hu225 Fab, part only)
chain, part: B1 chain, part with I36L, Y58W, V101I, Y105F
B4: ΔB7-H6_S3#8-SEED-PGLALA (bispecific antibody, part only; not given: SEED Fc chains and hu225 EGFR Fab, part only)
chain, part: B1 chain, part with I36H, Y58W, V101I, Y105L
B5: ΔB7-H6_S3#26-SEED-PGLALA (bispecific antibody, part only; not given: SEED Fc chains and hu225 Fab, part only)
chain, part: B1 chain, part with I36T, Y58W, G59D
B6: ΔB7-H6_S3#17-SEED-PGLALA (bispecific antibody, part only; not given: SEED Fc chains and hu225 EGFR Fab, part only)
chain, part: B1 chain, part with I36S, V101F, Y105L
B7: ΔB7-H6_S3#21-SEED-PGLALA (bispecific antibody, part only; not given: SEED Fc chains and hu225 Fab, part only)
chain, part: B1 chain, part with I36L, Y58W
B8: ΔB7-H6_S3#1-SEED-PGLALA (bispecific antibody, part only; not given: SEED Fc chains and hu225 EGFR Fab, part only)
chain, part: B1 chain, part with I36T, Y58W
B9: ΔB7-H6_S3#10-SEED-PGLALA (bispecific antibody, part only; not given: SEED Fc chains and hu225 Fab, part only)
chain, part: B1 chain, part with I36S, V101F
B10: ΔB7-H6_S3#28-SEED-PGLALA (bispecific antibody, part only; not given: SEED Fc chains and hu225 EGFR Fab, part only)
chain, part: B1 chain, part with I36H, Y58W, Y105L
B11: ΔB7-H6_S3#9-SEED-PGLALA (bispecific antibody, part only; not given: SEED Fc chains and hu225 EGFR Fab, part only)
chain, part: B1 chain, part with I36H, Y58F
B12: ΔB7-H6_S3#30-SEED-PGLALA (bispecific antibody, part only; not given: SEED Fc chains and hu225 Fab, part only)
chain, part: B1 chain, part with I36E, Y58W, V101I, Y105L
B13: ΔB7-H6_S3#5-SEED-PGLALA (bispecific antibody, part only; not given: SEED Fc chains and hu225 Fab, part only)
chain, part: B1 chain, part with I36V, Y58W
B14: ΔB7-H6_S2#2-SEED-PGLALA (bispecific antibody, part only; not given: SEED Fc chains and hu225 Fab, part only)
chain, part: B1 chain, part with I36S, Y58W, G59D
B15: ΔB7-H6_S3#7-SEED-PGLALA (bispecific antibody, part only; not given: SEED Fc chains and hu225 Fab, part only)
chain, part: B1 chain, part with I36H
B16: ΔB7-H6_S3#3-SEED-PGLALA (bispecific antibody, part only; not given: SEED Fc chains and hu225 Fab, part only)
chain, part: B1 chain, part with I36H, Y58F, V101F
B17: ΔB7-H6_S2#7-SEED-PGLALA (bispecific antibody, part only; not given: SEED Fc chains and hu225 Fab, part only)
chain, part: B1 chain, part with I36S, V101I, A117T
B18: ΔB7-H6_S2#3-SEED-PGLALA (bispecific antibody, part only; not given: SEED Fc chains and hu225 Fab, part only)
chain, part: B1 chain, part with I36T, Y58W, Y105L
B19: ΔB7-H6_S3#23-SEED-PGLALA (bispecific antibody, part only; not given: SEED Fc chains and hu225 Fab, part only)
chain, part: B1 chain, part with I36E
B20: ΔB7-H6_S3#12-SEED-PGLALA (bispecific antibody, part only; not given: SEED Fc chains and hu225 Fab, part only)
chain, part: B1 chain, part with I36E, Y58F
B21: ΔB7-H6_S2#1-SEED-PGLALA (bispecific antibody, part only; not given: SEED Fc chains and hu225 EGFR Fab, part only)
chain, part: B1 chain, part with I36S
B22: ΔB7-H6_S3#22-SEED-PGLALA (bispecific antibody, part only; not given: SEED Fc chains and hu225 Fab, part only)
chain, part: B1 chain, part with I36E, Y58W
B23: ΔB7-H6_S3#6-SEED-PGLALA (bispecific antibody, part only; not given: SEED Fc chains and hu225 Fab, part only)
chain, part: B1 chain, part with I36H, Y58W
B24: ΔB7-H6_S3#29-SEED-PGLALA (bispecific antibody, part only; not given: SEED Fc chains and hu225 EGFR Fab, part only)
chain, part: B1 chain, part with I36V, Y58W, V101I

biological target: NKp30 on human NK cells (human) (UniProt O14931); experiment: cell-based or functional assay
Sequence (O14931 19-201): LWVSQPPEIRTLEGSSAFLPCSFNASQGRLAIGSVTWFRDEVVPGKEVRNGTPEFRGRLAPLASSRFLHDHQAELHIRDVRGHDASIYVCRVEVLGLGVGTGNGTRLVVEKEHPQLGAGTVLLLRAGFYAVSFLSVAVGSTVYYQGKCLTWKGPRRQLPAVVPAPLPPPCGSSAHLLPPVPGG

A431 EC50 with NK cells (pM) | A431 EC50 with PBMC (pM) | A549 EC50 with NK cells (pM) | A549 EC50 with PBMC (pM) | EC50 (pM), A431 lysis with PBMC [pM] | EC50 improvement compared to ΔB7-H6 wt [fold] | Binder
3.55 | 39.7 | 35.2 | 108 | 9.3 | 93 | B1
– | – | – | – | 240 | 4 | B2
– | – | – | – | 65.8 | 13 | B3
– | – | – | – | 43.7 | 20 | B4
– | – | – | – | 22.7 | 38 | B5
– | – | – | – | 427 | 2 | B6
– | – | – | – | 36.1 | 24 | B7
– | – | – | – | 61.1 | 14 | B8
– | – | – | – | 85 | 10 | B9
– | – | – | – | 114 | 8 | B10
– | – | – | – | 64 | 14 | B11
– | – | – | – | 176 | 5 | B12
– | – | – | – | 54.7 | 16 | B13
– | – | – | – | 169 | 5 | B14
– | – | – | – | 45.4 | 19 | B15
– | – | – | – | 110 | 8 | B16
– | – | – | – | 170 | 5 | B17
– | – | – | – | 175 | 5 | B18
– | – | – | – | 78 | 11 | B19
– | – | – | – | 165 | 5 | B20
– | – | – | – | 140 | 6 | B21
– | – | – | – | 106 | 8 | B22
– | – | – | – | 40.8 | 21 | B23
– | 33.6 | – | 172 | 7.6 | 114 | B24

biological target: human NKp30 (human) (UniProt O14931); experiment: BLI, ratio to ΔB7-H6_wt
Sequence (O14931 19-135 limits assumed): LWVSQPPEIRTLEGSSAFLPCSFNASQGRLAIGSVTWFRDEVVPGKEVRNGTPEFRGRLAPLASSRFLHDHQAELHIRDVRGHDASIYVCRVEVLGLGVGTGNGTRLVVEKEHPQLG

KD improvement compared to ΔB7-H6 wt [fold] | x-fold KD improvement [fold] | x-fold Koff improvement [fold] | Binder
27.4 | 27.5 | 16.1 | B1
2.8 | 2.8 | 1.7 | B2
10.5 | 10.5 | 3.9 | B3
5.1 | 5.1 | 3.7 | B4
3.6 | 3.6 | 3.6 | B5
6.9 | 6.9 | 2.9 | B6
22.8 | 22.8 | 8 | B7
10.5 | 10.5 | 5.7 | B8
2.8 | 2.8 | 1.7 | B9
0.9 | 0.9 | 1.2 | B10
7.1 | 7.1 | 3 | B11
3.3 | 3.3 | 2.2 | B12
18.2 | 18.2 | 9.3 | B13
1.9 | 1.9 | 2.3 | B14
3.7 | 3.7 | 3.2 | B15
3.9 | 3.9 | 1.5 | B16
2.1 | 2.1 | 1.7 | B17
2.1 | 2.1 | 1.6 | B18
3.7 | 3.7 | 3.2 | B19
3.2 | 3.2 | 1.9 | B20
2 | 2 | 2.2 | B21
4.3 | 4.3 | 3.8 | B22
12.4 | 12.4 | 6.9 | B23
16.5 | 16.5 | 9.6 | B24

biological target: human NKp30 (human) (UniProt O14931); experiment: BLI, immunoligand on anti-hFc tip

Kd [nM] | koff [s⁻¹] | kon [M⁻¹ s⁻¹] | Binder
14.9 | 0.0104 | 702000 | B1
146 | 0.0981 | 673000 | B2
39.1 | 0.0432 | 1.11e+06 | B3
80.7 | 0.0455 | 564000 | B4
113 | 0.0464 | 409000 | B5
59.1 | 0.0573 | 969000 | B6
17.9 | 0.0211 | 1.18e+06 | B7
39.1 | 0.0295 | 754000 | B8
145 | 0.0998 | 689000 | B9
443 | 0.136 | 306000 | B10
57.8 | 0.056 | 970000 | B11
125 | 0.0776 | 622000 | B12
22.5 | 0.018 | 799000 | B13
217 | 0.0737 | 340000 | B14
110 | 0.0525 | 478000 | B15
104 | 0.109 | 1.05e+06 | B16
191 | 0.0964 | 504000 | B17
194 | 0.106 | 546000 | B18
110 | 0.0525 | 479000 | B19
129 | 0.0865 | 671000 | B20
205 | 0.078 | 380000 | B21
95.2 | 0.0441 | 463000 | B22
33.1 | 0.0244 | 737000 | B23
24.8 | 0.0175 | 705000 | B24
